Substrate in the data set: Nc1ncnc2c1ncn2[C@@H]1O[C@H](COP(=O)(O)OP(=O)(O)OP(=O)(O)O)[C@@H](O)[C@H]1O
Briefly: purified protein. As to conditions: 50 mM Tris-HCl pH 8.0, 20 mM MgCl2, 1 mM EDTA, 37 °C.

B1: mBcs1 (full-length mouse Bcs1; mBcs1-His) (Mus musculus) (protein)
chain: MPFSDFVLALKDNPYFGAGFGLVGVGTALAMARKGAQLGLVAFRRHYMITLEVPARDRSYAWLLSWLTRHSTRTQHLSVETSYLQHESGRISTKFEFIPSPGNHFIWYQGKWIRVERNRDMQMVDLQTGTPWESVTFTALGTDRKVFFNILEEARALALQQEEGKTVMYTAVGSEWRTFGYPRRRRPLDSVVLQQGLADRIVKDIREFIDNPKWYIDRGIPYRRGYLLYGPPGCGKSSFITALAGELEHSICLLSLTDSSLSDDRLNHLLSVAPQQSLVLLEDVDAAFLSRDLAVENPIKYQGLGRLTFSGLLNALDGVASTEARIVFMTTNYIDRLDPALIRPGRVDLKEYVGYCSHWQLTQMFQRFYPGQAPSLAENFAEHVLKATSEISPAQVQGYFMLYKNDPMGAVHNIESLR
In the case of B1, the Km is 40 µM.

Source of the values: paper PMC8482623.
